The numbers were not newly measured in patent US20250197888A1, “NOVEL RECOMBINANT VECTOR AND USE THEREOF” (CELL & BRAIN CO., LTD., priority 2022, published 2025), which cites them from elsewhere.

For the data set the following is noted: A168H mutant; Balzarini et al., 2006.

For the substance “mutant HSV-TK: HSV thymidine kinase in which alanine at position 168 is substituted with histidine”, the “kinase activity relative to wild-type HSV-TK” value was “about 4 times”.
